Data published in patent EP4786493A1 (Nanjing Probio Biotech Co., Ltd., dated 2026).

Experiments:
[1] = target: T1, human Claudin 18.2 expressed on cells (HEK293/human Claudin 18.2; CHO-K1/human Claudin 18.2) (human, UniProt P56856-2 1-261); experiment: cell-based or functional assay
[2] = target: T2, recombinant human Claudin 18.2 protein (GenScript, Z03504) (human, UniProt P56856-2 1-261, limits assumed); experiment: indirect ELISA, plate coated with recombinant human Claudin 18.2, anti-human IgG Fc-HRP detection
T2 construct: Bought recombinant protein

[3] = target: T1, human Claudin 18.2 expressed on cells …; experiment: flow cytometry on HEK293 cells expressing human Claudin 18.2
[4] = target: T2, recombinant human Claudin 18.2 protein …; experiment: SPR Biacore 8K, antibody captured via Fc, human Claudin 18.2 protein as analyte
[5] = target: T2, recombinant human Claudin 18.2 protein …; experiment: competition ELISA on coated recombinant human Claudin 18.2; competitor biotinylated IMAB362 (0.72 µg/ml)
[6] = target: T1, human Claudin 18.2 expressed on cells …; experiment: cell-based or functional assay; remark: listed apart in the source

Row | Binder | ADCC reporter gene assay (CHO-K1/Claudin 18.2 target cells, GS-J2C/CD16A 158V effector cells): EC50 [1] [nM] | ADCC reporter gene assay (CHO-K1/Claudin 18.2 target cells, GS-J2C/CD16A 158V effector cells): Top [1] | EC50 [2] [nM] | EC50 [3] [nM] | Kd [4] [nM] | IC50 [5] [nM] | CDC on CHO-K1/human Claudin 18.2 cells: Top [6] [%]
1 | AHP29153 (antibody, V domains shown) VH: QLQQVESGGGLVQPGGSLRLSCAASRNIGILSTMGWYRQAPGKQRELVATITRGGSTNYGEFVKGRFTISRDNAKNTVYLQMNSLKPEDTAVYYCNVDESWLGTQSYWGRGTTVTVSS VL: QSVLTQPASVSGSPGQSITISCTGTSSDVGGYKYVSWYQQPPGKAPKLIIYEVTKRPSGVPDRFSGSKSGNTASLTVSGLQAEDEADYYCLSYAGSNNVFGTGTKLTVL | 0.805 | 283000 | 0.125 | 8.15 | 9.96 | 0.323 | 96.3
2 | AHP32982 (antibody, V domains shown) VH: QVQLVQSGGGLVQPGGSLRLSCAASRNIGILSTMGWYRQAPGKQRELVATITRGGSTNYGEFVKGRFTISRDNAKNTVYLQMNSLKPEDTAVYYCNVDESWLGTQSYWGRGPLVTVSS VL: DIVMTQSPSSVSASVGDRVTITCRASQGISSWLAWYQQKPGKAPKLLIYAASSLQSGVPSRFSGSGSGTDFTLTISSLQPEDFATYYCQQANSFPLTFGGGTKVEIK | 0.379 | 216000 | 0.119 | 5.91 | 13.3 | 0.491 | 95.5
3 | AHP33007 (antibody, V domains shown) VH: QVQLVQSGGGLVQPGGSLRLSCAASRNIGILSTMGWYRQAPGKQRELVATITRGGSTNYGEFVKGRFTISRDNAKNTVYLQMNSLKPEDTAVYYCNVDESWLGTQSYWGRGPLVTVSS VL: not shown | 1.84 | 295000 | 0.139 | 12.4 | 2.7 | 0.805 | 92.7
4 | AHP31548 (antibody, V domains shown) VH: QVQLMQSGGGLVQPGGSLRLSCAASRNIGILSTMGWYRQAPGKQRELVATITRGGSTNYGEFVKGRFTISRDNAKNTVYLQMNSLKPEDTAVYYCNVDESWLGTQSYWGRGTTVTVSS VL: QSALTQPPSASGSPGQSVTISCTGTSSDIGTYNFVSWYQQHPGKAPKLIIYEVSKRPSGVPDRFSGSKSGNTASLTVSGLQAEDEADYYCKSYPRVFGTGTKLTAL | 2.15 | 463000 | 0.074 | 3.08 | 7.31 | 0.265 | 94
5 | AHP32913 (antibody, V domains shown) VH: QVQLMQSGGGLVQPGGSLRLSCAASRNIGILSTMGWYRQAPGKQRELVATITRGGSTNYGEFVKGRFTISRDNAKNTVYLQMNSLKPEDTAVYYCNVDESWLGTQSYWGRGTQVTVSS VL: QAVVTQEPSLTVSPGGTVTLTCGSSTGPVTSGHYPHWYQQKPGQAPKTLIFDTSHKHPWTPAQFSGSLLGGKAALTLSGAHPEDEAEYYCLLSYSGVRVFGGGTQLIIL | 8.12 | 486000 | 0.111 | 4.16 | 9.44 | 0.337 | 93
6 | AHP30826 (antibody, V domains shown) VH: QVQLQQSGGGSVQAGGSLRLSCAASGTILSINAMGWYRQAPGKQRELVATITTGGNANYAHSVKGRFTISRDNAKNTVYLQMNNLKPEDTAVYYCNAEQVVVGFLQAYDVWGQGTTVTVSS VL: DVVMTQSPLSLPVTLGQAASISCRSSQSLVHGDGNTYLNWIQQRPGQSPRRLIYKVSNRDSGVPDRFSGSGSGTDFTLKISRVEAEDVGVYYCMQGTHWPSTFGPGTKVDIK | 0.684 | 222000 | 0.0914 | 3.54 | 7.82 | 0.276 | 96
7 | AHP32919 (antibody, V domains shown) VH: QVQLQESGGGVVQPGGSLRLSCAASQSIGLLSTMGWYRQAAGKQRELVATITRGGSTNYGEFVKGRFTISRDNAKNTVYLQMNSLKPEDTAVYYCTADESWLGTQSYWGRGTRVTVSS VL: QAGLTQPPSASGTPGQGVTISCSGSSSNIGSNSVNWYQQLPGTAPKLLMHSNNERSSGVPDRFSGSKSGSSASLAISGLQSEDAADYFCGAWDDSLNGYVFGTGTKLTVL | ~0.439 | 199000 | 0.0788 | 6.04 | 7.91 | 0.271 | 96.3
8 | AHP33029 (antibody, V domains shown) VH: QVQLVDSGGGLVQSGGSLRLTCAASQSIGLLSTMGWYRQAAGKQRELVATITRGGSTNYGEFVKGRFTISRDNAKNTVYLQMNSLKPEDTAVYYCTADESWLGTQSYWGRGTLVTVSS VL: not shown | 3.73 | 358000 | 0.0746 | 4.24 | 10.2 | 0.319 | 96.9
